These results are taken from publication PMC10138814.

For assay [1], the target named is mCherry-LaM3 complex (llama). Put plainly: ITC; 100 uM nanobody in the syringe into 10 uM mCherry (or 8.9 uM mCherry-LaM1 or mCherry-LaM3 complex) in the cell; 25 °C; one set of sites. On the technique in general: Isothermal titration calorimetry measures the heat released or taken up as one component is titrated into another.
The target in assay [2] is mCherry-LaM1 complex (llama). The assay is described as above.

B1: LaM8 (VHH)
VHH: QVQLVESGGGLVQAGGSLRLSCAVSGRPFSEYNLGWFRQAPGKEREFVARIRSSGTTVYTDSVKGRFSASRDNAKNMGYLQLNSLEPEDTAVYYCAMSRVDTDSPAFYDYWGQGTQVTVST
In the case of B1, in assay [1], the dissociation constant (Kd) came out at 236 nM, the dH was -9.99 kcal/mol and the stoichiometry N was 0.799 sites. In addition, in assay [2], the Kd came out at 54 nM, the dH was -10.3 kcal/mol and the stoichiometry N amounted to 0.854 sites.

In general, Kd refers to a measure of binding affinity in units of concentration. A high value points to a looser complex. As a reminder, the stoichiometry N is a count of units in the complex or per binding partner.
